According to paper PMC12162218:

Target: Cat1-His6 (CRISPR-associated TIR protein 1, homolog MCI0612855.1)
Assay: SEC-MALS; Cat1-His6 with NAD+ (1:10 molar ratio), no cA4; Superose 6 10/300 increase; 25 mM MES pH 6, 200 mM NaCl, 2 mM β-mercaptoethanol, 5 % glycerol

stoichiometry N: 2
Substance: Cat1-His6 (CRISPR-associated TIR protein 1, homolog MCI0612855.1) (enzyme)
